Results as given in patent publication US20250084406A1 (University of California, published 2025).

Legend:
37B-VP16 = target: T1, 37B-VP16; assay: split TF YFP reporter assay in S. cerevisiae (all-by-all matrix, FIG. 1D)
T1 construct: Expressed in S. cerevisiae; also called DHD37B fused to VP16; 37B DHD-AD
T1 chain: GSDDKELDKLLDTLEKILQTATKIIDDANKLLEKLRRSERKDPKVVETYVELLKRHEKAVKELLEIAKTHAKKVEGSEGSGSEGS

[1] = target: T2, DHD37B (fusion partner in the split TF assay not stated for this statement); assay: split TF YFP reporter assay in S. cerevisiae (all-by-all matrix, FIG. 1D); orientation of the fusions not told
T2 construct: not shown: fused to VP16 or ZF43_8
T2 chain: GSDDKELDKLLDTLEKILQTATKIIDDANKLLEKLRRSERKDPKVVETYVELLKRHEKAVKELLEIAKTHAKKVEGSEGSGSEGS

154B-VP16 = target: T3, 154B-VP16; assay: competition in the split TF YFP reporter assay in yeast, layout of FIG. 2A (FIG. 2D)
T3 construct: Expressed in S. cerevisiae; also called DHD154B fused to VP16
T3 chain: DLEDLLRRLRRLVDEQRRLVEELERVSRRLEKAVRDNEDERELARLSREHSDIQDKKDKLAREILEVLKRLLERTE

155B-VP16 = target: T4, 155B-VP16; assay: split TF YFP reporter assay in S. cerevisiae (all-by-all matrix, FIG. 1D)
T4 construct: Expressed in S. cerevisiae; also called DHD155B fused to VP16
T4 chain: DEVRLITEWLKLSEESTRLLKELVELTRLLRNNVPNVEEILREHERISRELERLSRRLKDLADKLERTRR

B1: 37A-ZF43_8 (designed binder)
chain: DSDEHLKKLKTFLENLRRHLDRLDKHIKQLRDILSENPEDERVKDVIDLSERSVRIVKTVIKIFEDSVRKKEGSEGSGSEGS
notes: Expressed in S. cerevisiae; also called DHD37A fused to ZF43_8; 37A DHD-DBD
B1: binds (37B-VP16).

B2: DHD13B (fusion partner in the split TF assay not stated for this statement) (designed binder)
chain: GTEKRLLEEAERAHREQKEIIKKAQELHRRLEEIVRQSGSSEEAKKEAKKILEEIRELSKRSLELLREILYLSQEQKGSEGSGSEGS
notes: not shown: fused to VP16 or ZF43_8
B2: binds [1].

B3: 154A dominant negative (designed binder)
chain: TAEELLEVHKKSDRVTKEHLRVSEEILKVVEVLTRGEVSSEVLKRVLRKLEELTDKLRRVTEEQRRVVEKLN
notes: also called DN
B3: binds (154B-VP16).

B4: 155A-ZF43_8 (designed binder)
chain: PEDDVVRIIKEDLESNREVLREQKEIHRILELVTRGEVSEEAIDRVLKRQEDLLKKQKESTDKARKVVEERR
notes: Expressed in S. cerevisiae; also called DHD155A fused to ZF43_8
B4: binds (155B-VP16).
